Experimental data from publication PMC7125159, “Pyrazinamide triggers degradation of its target aspartate decarboxylase” (Nature Communications, 2020).

Biological target: the molecule itself
Assay: dynamic light scattering; drug-free; 1 mg/mL PanD in 50 mM Tris pH 7.5, 200 mM NaCl, 298 K; octamer

B1: Wild-type Mtb Aspartate decarboxylase PanD (PanDWT), cleaved active form (enzyme)
chain 1: MLRTMLKSKIHRATVTCADLHYVG
chain 2: SVTIDADLMDAADLLEGEQVTIVDIDNGARLVTYAITGERGSGVIGINGAAAHLVHPGDLVILIAYATMDDARARTYQPRIVFVDAYNKPIDMGHDPAFVPENAGELLDPRLGVG
notes: not shown: His6, N-terminal, kept; copies: 8 + 8
  stoichiometry N: 8
